Reference: patent US20120021999A1 (published 2012)
Ends that are not written are not given here. * marks the point of attachment. Biotin = O=C1N[C@H]2[C@H](CS[C@H]2CCCCC(=O)*)N1

T1: caspase-9 from IL-2-stimulated TS1αβ cellular extracts (mouse, UniProt Q8C3Q9 1-454, limits assumed)
T1 construct: Endogenous protein in a cell lysate
T1 sequence (looked up): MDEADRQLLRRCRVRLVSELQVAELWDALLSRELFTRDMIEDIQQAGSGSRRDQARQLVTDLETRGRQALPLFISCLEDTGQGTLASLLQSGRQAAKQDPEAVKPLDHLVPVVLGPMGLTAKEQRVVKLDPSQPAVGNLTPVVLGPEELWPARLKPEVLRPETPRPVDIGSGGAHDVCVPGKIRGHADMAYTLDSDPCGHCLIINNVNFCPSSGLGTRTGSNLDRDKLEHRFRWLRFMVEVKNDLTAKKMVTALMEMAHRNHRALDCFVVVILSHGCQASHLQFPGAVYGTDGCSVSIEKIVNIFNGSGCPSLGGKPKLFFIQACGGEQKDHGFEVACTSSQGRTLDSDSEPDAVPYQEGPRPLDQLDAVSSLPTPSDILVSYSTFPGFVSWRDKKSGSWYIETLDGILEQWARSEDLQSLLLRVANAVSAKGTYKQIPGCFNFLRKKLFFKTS

B1: DPT-C9 (peptide)
peptide: Biotin-VKKKKIKREIKIYIETLDGILEQWARSEDL
notes: Biotinylated, held on streptavidin beads in the pull-down
B2: DPT-sh1 (peptide)
peptide: Biotin-VKKKKIKREIKI
notes: Penetrating shuttle peptide; origin printed as CK2alpha (human); Biotinylated, held on streptavidin beads in the pull-down; also called shuttle
B3: C9 (peptide)
peptide: Biotin-YIETLDGILEQWARSEDL
notes: Synthetic NH2-biotinylated peptide, held on streptavidin beads in the pull-down
B4: DPT-C9r (peptide)
peptide: Biotin-VKKKKIKREIKILDESRAWQELIGDLTEIY
notes: as for B1

Experiments:
[1] = biological target: T1, caspase-9 from IL-2-stimulated TS1αβ …; experiment: pull-down of biotinylated peptide on streptavidin beads from TS1αβ cell extracts, immunoblot
[2] = biological target: T2, PP2Ac from IL-2-stimulated TS1αβ cellular extracts (mouse, UniProt P63330 1-309); experiment: pull-down of biotinylated peptide on streptavidin beads from TS1αβ cell extracts, anti-PP2Ac immunoblot
T2 construct: Endogenous protein in a cell lysate, detected by immunoblot with anti-PP2Ac antibody
Method: Control streptavidin-sepharose alone or conjugated to DPT-C9, DPT-C9r, DPT-sh1 or C9 peptides were incubated with IL-2-stimulated cellular extracts form TS1αβ cells (10⁷ cells/point). Identification of unbound proteins in lysates or bound proteins in pull-down experiments was performed by immunoblotting using antibodies against PP2Ac or PP1c.
Biotinylated peptides were preincubated 2 h at 0-100 μM (in final concentration with lysate) at room temperature with 30 μl of streptavidin-coated immunomagnetic beads (Calbiochem, San Diego Calif.). During this time, 10⁷ exponentially growing TS1αβ cells were first washed twice with PBS and then lysed 10 minutes on ice in 400 μl of lysis buffer (50 mM Tris pH7.4, 150 mM NaCl, 20% glycerol, 1% NP-40, 10 mM EDTA, 1 mM PhenylMethylSulfonyl Fluoride, 10 mM NaF, 1 mM orthovanadate, “complete, EDTA-free” protease inhibitor cocktail from Roche).
Lysates were clarified at 13000 g for 10 minutes at 4° C. and were incubated with biotinylated peptides associated with the streptavidin-coated immunomagnetic beads 2 h at 4° C. Biotinylated peptides were pulled down with streptavidin beads and washed two times in 700 μl of lysis buffer on ice. Bound proteins and unbound lysates were then analyzed by SDS-PAGE and Western Blotting using PP1c or PP2Ac antibodies.

T2 sequence (P63330 whole entry): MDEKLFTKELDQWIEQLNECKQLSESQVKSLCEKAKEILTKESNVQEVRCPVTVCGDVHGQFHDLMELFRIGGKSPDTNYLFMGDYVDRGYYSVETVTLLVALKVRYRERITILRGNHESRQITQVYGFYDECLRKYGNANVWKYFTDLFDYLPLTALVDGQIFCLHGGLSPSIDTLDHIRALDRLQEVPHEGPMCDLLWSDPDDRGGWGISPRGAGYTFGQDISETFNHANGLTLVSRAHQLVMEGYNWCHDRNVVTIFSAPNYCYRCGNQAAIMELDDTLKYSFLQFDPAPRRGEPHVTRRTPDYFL

Row | Binder | binding result [1] | binding result [2]
1 | B1 | no binding | 
2 | B2 |  | no binding
3 | B3 | no binding | 
4 | B4 |  | no binding
